This is an account of results in PMC7948503, “Optimization of a peptide ligand for the adhesion GPCR ADGRG2 provides a potent tool to explore receptor biology” (The Journal of Biological Chemistry, 2020).

Non-standard residues stand in square brackets, D forms with d. Primed or numbered codes have the meaning given here. No end group written: not given here. Phe(4-Me) = Cc1ccc(C[C@H](N)C(=O)O)cc1; FITC′ = not defined here

Holding throughout (experiment): FRET or BRET; HEK293 cells transfected with Rluc-ADGRG2-ΔGPS-β WT or mutants, stimulated by increasing concentrations of FITC-conjugated VPM-p15; saturation curves fitted with GraphPad; each experiment repeated 6 times
Common to all, as to settings: one partner purified
A general note: In BRET a luciferase serves as donor, and the signal depends on an acceptor being close.

One assay deals with T1, Rluc-ADGRG2-ΔGPS-β Y666A (mouse, UniProt Q8CJ12-3 38-995, Y666A).
T1 construct: ADGRG2 (GPR64), mouse, ADGRG2-ΔGPS-β: the entire ECD removed; source: HEK293, transfected, on cells; not shown: Rluc, N-terminal, kept

The target in the next assay is T2, Rluc-ADGRG2-ΔGPS-β N667A (mouse, UniProt Q8CJ12-3 38-995, N667A).
T2 construct: ADGRG2 (GPR64), mouse, ADGRG2-ΔGPS-β: the entire ECD removed; source: HEK293, transfected, on cells; not shown: Rluc, N-terminal, kept

For another assay, the target named is T3, Rluc-ADGRG2-ΔGPS-β F671A (mouse, UniProt Q8CJ12-3 38-995, F671A).
T3 construct: ADGRG2 (GPR64), mouse, ADGRG2-ΔGPS-β: the entire ECD removed; source: HEK293, transfected, on cells; not shown: Rluc, N-terminal, kept

The target in a further assay is T4, Rluc-ADGRG2-ΔGPS-β L683A (mouse, UniProt Q8CJ12-3 38-995, L683A).
T4 construct: ADGRG2 (GPR64), mouse, ADGRG2-ΔGPS-β: the entire ECD removed; source: HEK293, transfected, on cells; not shown: Rluc, N-terminal, kept

The target in the next assay is T5, Rluc-ADGRG2-ΔGPS-β V731A (mouse, UniProt Q8CJ12-3 38-995, V731A).
T5 construct: ADGRG2 (GPR64), mouse, ADGRG2-ΔGPS-β: the entire ECD removed; source: HEK293, transfected, on cells; not shown: Rluc, N-terminal, kept

Assay [1] deals with T6, Rluc-ADGRG2-ΔGPS-β wildtype (mouse, UniProt Q8CJ12-3 38-995).
T6 construct: also called WT; ADGRG2-ΔGPS-β WT; source: HEK293, transfected, on cells; not shown: Rluc, N-terminal, kept

Another assay has as its target T7, Rluc-ADGRG2-ΔGPS-β N759A (mouse, UniProt Q8CJ12-3 38-995, N759A).
T7 construct: ADGRG2 (GPR64), mouse, ADGRG2-ΔGPS-β: the entire ECD removed; source: HEK293, transfected, on cells; not shown: Rluc, N-terminal, kept

The next assay concerns the target T8, Rluc-ADGRG2-ΔGPS-β S760A (mouse, UniProt Q8CJ12-3 38-995, S760A).
T8 construct: ADGRG2 (GPR64), mouse, ADGRG2-ΔGPS-β: the entire ECD removed; source: HEK293, transfected, on cells; not shown: Rluc, N-terminal, kept

The next assay concerns the target T9, Rluc-ADGRG2-ΔGPS-β V762A (mouse, UniProt Q8CJ12-3 38-995, V762A).
T9 construct: ADGRG2 (GPR64), mouse, ADGRG2-ΔGPS-β: the entire ECD removed; source: HEK293, transfected, on cells; not shown: Rluc, N-terminal, kept

The next assay addresses T10, Rluc-ADGRG2-ΔGPS-β V768A (mouse, UniProt Q8CJ12-3 38-995, V768A).
T10 construct: ADGRG2 (GPR64), mouse, ADGRG2-ΔGPS-β: the entire ECD removed; source: HEK293, transfected, on cells; not shown: Rluc, N-terminal, kept

In the next assay the target is T11, Rluc-ADGRG2-ΔGPS-β V774A (mouse, UniProt Q8CJ12-3 38-995, V774A).
T11 construct: ADGRG2 (GPR64), mouse, ADGRG2-ΔGPS-β: the entire ECD removed; source: HEK293, transfected, on cells; not shown: Rluc, N-terminal, kept

For a further assay, the target named is T12, Rluc-ADGRG2-ΔGPS-β V836A (mouse, UniProt Q8CJ12-3 38-995, V836A).
T12 construct: ADGRG2 (GPR64), mouse, ADGRG2-ΔGPS-β: the entire ECD removed; source: HEK293, transfected, on cells; not shown: Rluc, N-terminal, kept

The target of a further assay is T13, Rluc-ADGRG2-ΔGPS-β F838A (mouse, UniProt Q8CJ12-3 38-995, F838A).
T13 construct: ADGRG2 (GPR64), mouse, ADGRG2-ΔGPS-β: the entire ECD removed; source: HEK293, transfected, on cells; not shown: Rluc, N-terminal, kept

The next assay concerns the target T14, Rluc-ADGRG2-ΔGPS-β I844A (mouse, UniProt Q8CJ12-3 38-995, I844A).
T14 construct: ADGRG2 (GPR64), mouse, ADGRG2-ΔGPS-β: the entire ECD removed; source: HEK293, transfected, on cells; not shown: Rluc, N-terminal, kept

A further assay concerns the target T15, Rluc-ADGRG2-ΔGPS-β Y611A (mouse, UniProt Q8CJ12-3 38-995, Y611A).
T15 construct: ADGRG2 (GPR64), mouse, ADGRG2-ΔGPS-β: the entire ECD removed; source: HEK293, transfected, on cells; not shown: Rluc, N-terminal, kept

Another assay concerns the target T16, Rluc-ADGRG2-ΔGPS-β W662A (mouse, UniProt Q8CJ12-3 38-995, W662A).
T16 construct: ADGRG2 (GPR64), mouse, ADGRG2-ΔGPS-β: the entire ECD removed; source: HEK293, transfected, on cells; not shown: Rluc, N-terminal, kept

T14 sequence (Q8CJ12 other isoform, or with tags, fused parts or gaps I844A | I844A | I844A I844A): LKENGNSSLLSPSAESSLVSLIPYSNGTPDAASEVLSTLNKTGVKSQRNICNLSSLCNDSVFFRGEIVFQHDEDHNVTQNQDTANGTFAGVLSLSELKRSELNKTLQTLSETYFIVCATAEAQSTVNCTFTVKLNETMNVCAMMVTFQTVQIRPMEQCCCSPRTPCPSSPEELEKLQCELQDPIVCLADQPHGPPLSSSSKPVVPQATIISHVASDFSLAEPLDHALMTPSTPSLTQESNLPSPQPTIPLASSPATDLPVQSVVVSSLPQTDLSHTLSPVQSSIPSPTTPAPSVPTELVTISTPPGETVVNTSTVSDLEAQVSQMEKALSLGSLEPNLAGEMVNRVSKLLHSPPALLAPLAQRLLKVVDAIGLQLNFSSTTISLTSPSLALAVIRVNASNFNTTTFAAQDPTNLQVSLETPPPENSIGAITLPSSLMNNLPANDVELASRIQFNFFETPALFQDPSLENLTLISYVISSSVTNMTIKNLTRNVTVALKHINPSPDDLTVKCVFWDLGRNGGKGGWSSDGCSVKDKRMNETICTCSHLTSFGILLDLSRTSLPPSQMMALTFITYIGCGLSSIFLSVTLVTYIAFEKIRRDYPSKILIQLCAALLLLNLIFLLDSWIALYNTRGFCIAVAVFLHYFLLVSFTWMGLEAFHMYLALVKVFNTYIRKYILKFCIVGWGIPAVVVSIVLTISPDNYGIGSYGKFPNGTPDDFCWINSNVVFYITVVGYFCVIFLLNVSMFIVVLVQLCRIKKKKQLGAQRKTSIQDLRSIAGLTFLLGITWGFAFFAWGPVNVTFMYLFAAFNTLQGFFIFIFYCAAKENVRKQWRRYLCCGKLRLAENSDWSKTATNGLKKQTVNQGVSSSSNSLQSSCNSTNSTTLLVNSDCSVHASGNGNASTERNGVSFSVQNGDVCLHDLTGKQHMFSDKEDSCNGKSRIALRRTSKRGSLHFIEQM
T7 sequence (Q8CJ12 other isoform, or with tags, fused parts or gaps N759A | N759A | N759A N759A): as the sequence (Q8CJ12 other isoform, or with tags, fused parts or gaps I844A | I844A | I844A I844A) above, with N722A, A807I counted along it
T2 sequence (Q8CJ12 other isoform, or with tags, fused parts or gaps N667A | N667A | N667A N667A): as the sequence (Q8CJ12 other isoform, or with tags, fused parts or gaps I844A | I844A | I844A I844A) above, with N630A, A807I counted along it
T11 sequence (Q8CJ12 other isoform, or with tags, fused parts or gaps V774A | V774A | V774A V774A): as the sequence (Q8CJ12 other isoform, or with tags, fused parts or gaps I844A | I844A | I844A I844A) above, with V737A, A807I counted along it
T4 sequence (Q8CJ12 other isoform, or with tags, fused parts or gaps L683A | L683A | L683A L683A): as the sequence (Q8CJ12 other isoform, or with tags, fused parts or gaps I844A | I844A | I844A I844A) above, with L646A, A807I counted along it
T12 sequence (Q8CJ12 other isoform, or with tags, fused parts or gaps V836A | V836A | V836A V836A): as the sequence (Q8CJ12 other isoform, or with tags, fused parts or gaps I844A | I844A | I844A I844A) above, with V799A, A807I counted along it
T10 sequence (Q8CJ12 other isoform, or with tags, fused parts or gaps V768A | V768A | V768A V768A): as the sequence (Q8CJ12 other isoform, or with tags, fused parts or gaps I844A | I844A | I844A I844A) above, with V731A, A807I counted along it
T3 sequence (Q8CJ12 other isoform, or with tags, fused parts or gaps F671A | F671A | F671A F671A): as the sequence (Q8CJ12 other isoform, or with tags, fused parts or gaps I844A | I844A | I844A I844A) above, with F634A, A807I counted along it
T9 sequence (Q8CJ12 other isoform, or with tags, fused parts or gaps V762A | V762A | V762A V762A): as the sequence (Q8CJ12 other isoform, or with tags, fused parts or gaps I844A | I844A | I844A I844A) above, with V725A, A807I counted along it
T13 sequence (Q8CJ12 other isoform, or with tags, fused parts or gaps F838A | F838A | F838A F838A): as the sequence (Q8CJ12 other isoform, or with tags, fused parts or gaps I844A | I844A | I844A I844A) above, with F801A, A807I counted along it
T1 sequence (Q8CJ12 other isoform, or with tags, fused parts or gaps Y666A | Y666A | Y666A Y666A): as the sequence (Q8CJ12 other isoform, or with tags, fused parts or gaps I844A | I844A | I844A I844A) above, with Y629A, A807I counted along it
T5 sequence (Q8CJ12 other isoform, or with tags, fused parts or gaps V731A | V731A | V731A V731A): as the sequence (Q8CJ12 other isoform, or with tags, fused parts or gaps I844A | I844A | I844A I844A) above, with V694A, A807I counted along it
T8 sequence (Q8CJ12 other isoform, or with tags, fused parts or gaps S760A | S760A | S760A S760A): as the sequence (Q8CJ12 other isoform, or with tags, fused parts or gaps I844A | I844A | I844A I844A) above, with S723A, A807I counted along it
T16 sequence (Q8CJ12 other isoform, or with tags, fused parts or gaps W662A | W662A | W662A W662A): as the sequence (Q8CJ12 other isoform, or with tags, fused parts or gaps I844A | I844A | I844A I844A) above, with W625A, A807I counted along it
T15 sequence (Q8CJ12 other isoform, or with tags, fused parts or gaps Y611A | Y611A | Y611A Y611A): as the sequence (Q8CJ12 other isoform, or with tags, fused parts or gaps I844A | I844A | I844A I844A) above, with Y574A, A807I counted along it
T6 sequence (Q8CJ12 other isoform, or with tags, fused parts or gaps mutant): as the sequence (Q8CJ12 other isoform, or with tags, fused parts or gaps I844A | I844A | I844A I844A) above, with A807I counted along it

Broadly, the EC50 is the concentration giving half of the maximal effect. The low end stands for higher potency in that assay, the high end for lower potency in that assay. As for VS[Phe(4-Me)]GILLDLSRTSLP-{FITC′} [FITC-conjugated VPM-p15 (ADGRG2 Stachel peptide p15 T1V/F3Phe(4-Me))], the concentration for a half-maximal effect (EC50) with Rluc-ADGRG2-ΔGPS-β Y666A is 838 nM; with Rluc-ADGRG2-ΔGPS-β N667A, 913 nM; in the assay with Rluc-ADGRG2-ΔGPS-β F671A it was 880 nM; with Rluc-ADGRG2-ΔGPS-β L683A, 1160 nM; in the assay with Rluc-ADGRG2-ΔGPS-β V731A, 838 nM; in [1], 936 nM. The EC50 with Rluc-ADGRG2-ΔGPS-β N759A came to 1550 nM; in the assay with Rluc-ADGRG2-ΔGPS-β S760A it was 1350 nM; in the assay with Rluc-ADGRG2-ΔGPS-β V762A it was 1190 nM; with Rluc-ADGRG2-ΔGPS-β V768A it was 1040 nM; with Rluc-ADGRG2-ΔGPS-β V774A, 1080 nM; with Rluc-ADGRG2-ΔGPS-β V836A it was 1230 nM. Also, the EC50 with Rluc-ADGRG2-ΔGPS-β F838A was found to be 767 nM; in the assay with Rluc-ADGRG2-ΔGPS-β I844A, 1540 nM; with Rluc-ADGRG2-ΔGPS-β Y611A, 712 nM; in the assay with Rluc-ADGRG2-ΔGPS-β W662A it was 1060 nM.
